Results published in patent US9505841B2, “Use of an anti-Ang2 antibody” (Samsung Electronics Co., Ltd., priority 2013, dated 2016).

Tests used:
Akt, eNOS and 42/44 = assay: Phosphorylation of Tie2 downstream signaling proteins in HUVEC (immunoblot); type: cell-based, human
Protocol: To see whether antibody 10D6 induces the activation of the downstream signaling of a Tie2 receptor as well as the activation of the Tie2 receptor itself, the phosphorylation degrees of proteins participating in the downstream signaling when Ang2 alone or Ang2 and antibody 10D6 was treated were tested using immune blotting.
Specifically, HUVEC (ATCC) cells (1×10^6) were cultured in a 6-well culture dish using EGM-2 (Lonza) media at 37° C. and when they reached 80˜90% confluency, the media were replaced with serum-free media (Lonza) and cultured at 37° C. for 6 to 16 hours. The dish was washed once with PBS, and the cultured cells were treated with a mixture prepared by mixing 60 nM of the Ang2 antibody (10D6) with 40 nM of Ang2 protein (R&D systems) and letting them stand for 20 min. and further cultured for 30 min. For comparison, groups in which Ang1 (R&D systems) 4 nM, Ang2 (R&D systems) 40 nM, and Ang2 (R&D systems) 40 nM+anti-Ang2 antibody (Regeneron) 60 nM were treated respectively were prepared.
The cells were washed using PBS, treated with a lysis buffer (Roche), collected to a tube to be dissolved at 4° C. for 30 min. and then, centrifuged at 13,000 rpm for 15 min. to measure a supernatant. A sample buffer (Invitrogen) mixed with a reducing agent was added to 25 ug of a cell lysate, which was boiled at 95° C. for 5 min., and then, applied to NuPAGE Novex 4-12% Bis-Tris gel (Invitrogen) and transferred onto Nitrocellulose membrane (Invitrogen).
To see the presence of the phosphorylation of Akt, eNOS and 42/44 involved in the downstream signaling, the blots were blocked with PBST mixed with 3% (v/v) skim milk (Sigma) for 30 min. and then treated with an anti pAkt antibody, anti p-eNOS antibody, and anti p-42/44 antibody (all of them; cell signaling). The blots were reacted in a stripping buffer (Thermo) for 15 min. and then blocked again to identify Akt, eNOS, and 42/44 using an anti Akt antibody, anti eNOS antibody, and anti 42/44 antibody (all of them; cell signaling).

Tie2 receptor = assay: Internalization of Tie2 receptor in HUVEC (confocal microscopy); type: cell-based, human
Protocol: HUVEC (ATCC) cells (1×10^6) were cultured in m-slide 8 wells (#80826, ibidi) for 24 hours and then subjected to serum starvation in serum-free EBM-2 media (Lonza) for 3 hours. 200 ng/ml of Ang1 (R&D systems) or 2ug/ml of Ang2 (R&D systems) and 10 ug/ml of antibody 10D6 were each diluted in EBM-2 media and then, the cells were treated with them and incubated according to time specified in the picture. The cells fixed with 4% formaldehyde (Sigma) was dyed first with an anti-Tie2 antibody (R&D systems) and then subjected to a secondary dye with an anti-goat Alexa 555 antibody (red, Life technology) and an anti-mouse Alexa 488 antibody (green, Life technology). The dyed cells were treated with Vectashield mounting medium with DAPI (Vector labs) and then observed using a confocal laser scanning microscopy (Carl Zeiss).

Tie2 and Akt = assay: In vivo phosphorylation of Tie2 and Akt in mouse lung tissue; details: C57BL6 mouse; 5 mg/kg antibody alone or with 20 ug Ang2, tail vein; 1 hour
Protocol: In addition, the phosphorylation of Tie2 receptor and a protein (Akt) which participates in downstream signaling of Tie2 by treating anti-Ang2 antibody was measured in animal model (in vivo). More particularly, 5 mg/kg of antibody was injected alone or together with 20 ug of Ang2 into tail vein of 7-8 week old C57BL6 mouse, and 1 hour after, lung tissue was removed. The obtained lung tissue was subjected to homogenization lysis using lysis buffer (Roche) and FastPrep kit (MP biomedicals). Activities of Tie2 and Akt in the obtained tissue lysate were measured by the above-described method.

Ang2:Tie2 receptor = biological target: T1, Ang2:Tie2 receptor (Homo sapiens, UniProt O15123); assay: ELISA for formation of 10D6-Ang2-Tie2 complex; type: binding; details: Tie2-Fc coated; 0.25 ug/ml Ang2, 2 ug/ml antibody
T1 construct: purchased R&D systems (Tie2-Fc)
Protocol: A 96-well MaxiSorp™ flat-bottom plate (Nunc) was coated with 4 ug/ml of Tie2-Fc (R&D systems) or BSA (Sigma). Then, the plate was washed five times with 0.05% (v/v) Tween-20-containing PBS (Phosphate Buffer Saline) and blocked with 1% (v/v) BSA (Bovine serum albumin; Sigma)-containing PBS at a room temperature for 2 hours. 0.25ug/ml of Ang2 and 2ug/ml of antibody 10D6 were added to each well of the plate, which was allowed to react at a room temperature for 2 hours and then washed five times with PBST. After that, an anti-mouse IgG antibody (Sigma) conjugated with HRP diluted in 1% (v/v) BSA-containing PBS at a ratio of 1:5,000 (v/v) was added in an amount of 100 ul to each well to react at a room temperature for 1 hour and then, the plate was washed five times with PBST. Lastly, 100 ul (microliter) of TMB substrate (Cell Signaling) was added to each well of the plate to induce color development for 3 min. and then, the reaction was ceased by the addition of 100 ul of Stop solution (Cell Signaling) and OD450 values were measured on a plate reader (Molecular Devices).

[1] = tested on: blood vessels in tumor tissues; assay: Immunofluorescence of blood vessels (CD31) and pericytes (PDGFR-β) in LLC tumors; type: in vivo, mouse; details: LLC tumors of Example 14; compared to Fc- or 4H10-treated tumors
Excerpt: To examine changes in blood vessels in tumor tissues after treated with antibody, frozen sections were obtained and subjected to immunofluorescence staining using a blood vessel specific marker, CD31 and a pericyte specific marker, PDGFR-β.
In particular, the tumor tissues obtained from Example 14 were frozen using OCT compound (Sakura Finetek), and frozen sections were obtained therefrom using cryostat (Leica). The obtained tumor frozen sections were blocked with 0.3% TBST (TBS mixed with 0.3% Triton X-100) buffer supplemented with 5% goat serum (Jackson Immunoresearch) for one hour. To the blocking buffer, hamster anti-CD31 antibody (1:200, Millipore) and rat anti-PDGF receptor beta antibody (1:200, eBioscience) were added, and the frozen sections were added thereto to be allowed to react for 3 hours. the reacted product was washed with TBS three times, and then, the blocking buffer mixed with cy3-conjugated anti-hamster IgG antibody and FITC-conjugated anti-rat IgG antibody (1:1,000, Jackson Immunoresearch) was added the frozen sections to be allowed to react for 2 hours. After washing with TBS three times, the frozen sections were covered with coverslip (Marenfield) using Fluorescence mounting medium (DAKO). The stained tumor frozen sections were observed using LSM5 (Zeiss) confocal microscope. […]

T1 sequence (O15123 19-496): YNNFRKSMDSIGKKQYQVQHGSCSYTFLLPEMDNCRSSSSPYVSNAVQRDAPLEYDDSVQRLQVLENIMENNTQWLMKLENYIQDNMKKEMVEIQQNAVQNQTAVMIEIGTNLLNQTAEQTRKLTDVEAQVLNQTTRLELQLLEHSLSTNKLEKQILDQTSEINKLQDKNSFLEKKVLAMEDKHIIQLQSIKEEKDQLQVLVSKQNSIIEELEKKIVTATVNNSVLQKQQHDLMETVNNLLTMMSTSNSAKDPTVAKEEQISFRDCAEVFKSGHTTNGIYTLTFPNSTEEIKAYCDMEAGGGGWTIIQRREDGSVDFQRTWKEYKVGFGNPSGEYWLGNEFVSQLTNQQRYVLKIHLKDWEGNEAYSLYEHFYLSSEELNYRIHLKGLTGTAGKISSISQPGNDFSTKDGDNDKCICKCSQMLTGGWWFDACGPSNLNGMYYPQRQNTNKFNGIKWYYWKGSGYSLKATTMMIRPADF
T1 sequence (Q02763 23-745 partner limits assumed): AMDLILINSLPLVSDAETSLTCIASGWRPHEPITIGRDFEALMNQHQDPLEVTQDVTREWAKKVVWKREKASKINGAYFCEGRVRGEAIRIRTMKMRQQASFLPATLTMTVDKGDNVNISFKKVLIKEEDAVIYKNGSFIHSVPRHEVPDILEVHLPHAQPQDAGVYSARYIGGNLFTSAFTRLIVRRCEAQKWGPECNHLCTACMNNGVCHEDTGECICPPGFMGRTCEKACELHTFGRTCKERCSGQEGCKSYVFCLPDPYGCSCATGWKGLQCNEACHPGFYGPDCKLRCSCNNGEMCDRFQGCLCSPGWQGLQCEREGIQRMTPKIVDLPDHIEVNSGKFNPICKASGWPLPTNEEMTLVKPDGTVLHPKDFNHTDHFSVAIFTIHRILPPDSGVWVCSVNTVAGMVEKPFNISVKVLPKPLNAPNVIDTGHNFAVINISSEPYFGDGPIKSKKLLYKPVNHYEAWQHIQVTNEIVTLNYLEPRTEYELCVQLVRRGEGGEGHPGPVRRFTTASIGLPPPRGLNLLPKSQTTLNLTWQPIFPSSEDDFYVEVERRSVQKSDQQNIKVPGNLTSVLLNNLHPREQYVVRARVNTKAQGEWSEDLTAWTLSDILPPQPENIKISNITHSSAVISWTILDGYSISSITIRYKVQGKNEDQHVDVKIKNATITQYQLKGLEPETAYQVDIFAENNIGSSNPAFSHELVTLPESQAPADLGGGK

B1: 10D6: mouse anti-Ang2 monoclonal antibody from hybridoma KCLRF-BP-00295; heavy chain variable region SEQ ID NO: 7, light chain variable region SEQ ID NO: 9 (antibody, V domains shown)
VH: DVQLQESGPGLVKPSQSLSLTCTVTGYSITSDYAWNWIRQFPGNKLEWMGYINYSGNTDYNPSLKSRSSITRDTSKNQFFLQLNSVTTGDTATYYCARGNFEGAMDYWGQGTSVTVSS
VL: SIVMTQTPKFLLVSAGDRVTITCKASQSVSNDVAWYQQKPGQSPKLLIYYASNRYPGVPDRFTGSGYGTDFTFTISTVQAEDLAVYFCQQDYSSPWTFGGGTKLEIK
modifications: Synthetic (Heavy chain variable region of an anti-Ang2 antibody); Synthetic (Light chain variable region of anti-Ang2 antibody)
downstream signaling (phosphorylation of Akt, eNOS, 42/44) compared to Ang2 sole-treatment and Ang2 + RG antibody (Akt, eNOS and 42/44; 60 nM 10D6 + 40 nM Ang2, or Ang1 4 nM alone, 30 min): strongly induced
downstream signaling effects relative to Ang1 sole-treatment group (Akt, eNOS and 42/44; 60 nM 10D6 + 40 nM Ang2 vs Ang1 4 nM): at least equal to those in the Ang1 sole-treatment group
time from which internalization of the Tie2 receptor started (Tie2 receptor; 2 ug/ml Ang2 and 10 ug/ml antibody): 30 min
location of internalized Tie2 and antibody (Tie2 receptor; anti-EEA1 antibody dye): located in an early endosome
phosphorylation of Tie2 and Akt in lung tissue in vivo (Tie2 and Akt): considerable effect of phosphorylating Tie2 and a protein, Akt
formation of complex with Ang2 bound to Tie2 (Ang2:Tie2 receptor): formed a complex
blood vessel density and vascular normalization in tumor [1]: decreases the density of blood vessels in tumor and induces vascular normalization
